Target: SARS-CoV-2 RBD (R319-F541) with a C-terminal His tag (SARS-CoV-2) (UniProt P0DTC2)
Assay: SEC + other: non-reducing SDS-PAGE

SARS-CoV-2 RBD (R319-F541) with a C-terminal His tag (from UniProt P0DTC2 319-541) (domain or fragment)
percent dimer: 30% | stoichiometry N: 2

From article PMC9708728
